This is an account of results in publication PMC5815190.

This assay has as its target human toll-like receptor 5 (hTLR5) on HEK-Blue-hTLR5 cells (human) (UniProt O60602).
Chain of UniProt O60602 (O60602 21-858): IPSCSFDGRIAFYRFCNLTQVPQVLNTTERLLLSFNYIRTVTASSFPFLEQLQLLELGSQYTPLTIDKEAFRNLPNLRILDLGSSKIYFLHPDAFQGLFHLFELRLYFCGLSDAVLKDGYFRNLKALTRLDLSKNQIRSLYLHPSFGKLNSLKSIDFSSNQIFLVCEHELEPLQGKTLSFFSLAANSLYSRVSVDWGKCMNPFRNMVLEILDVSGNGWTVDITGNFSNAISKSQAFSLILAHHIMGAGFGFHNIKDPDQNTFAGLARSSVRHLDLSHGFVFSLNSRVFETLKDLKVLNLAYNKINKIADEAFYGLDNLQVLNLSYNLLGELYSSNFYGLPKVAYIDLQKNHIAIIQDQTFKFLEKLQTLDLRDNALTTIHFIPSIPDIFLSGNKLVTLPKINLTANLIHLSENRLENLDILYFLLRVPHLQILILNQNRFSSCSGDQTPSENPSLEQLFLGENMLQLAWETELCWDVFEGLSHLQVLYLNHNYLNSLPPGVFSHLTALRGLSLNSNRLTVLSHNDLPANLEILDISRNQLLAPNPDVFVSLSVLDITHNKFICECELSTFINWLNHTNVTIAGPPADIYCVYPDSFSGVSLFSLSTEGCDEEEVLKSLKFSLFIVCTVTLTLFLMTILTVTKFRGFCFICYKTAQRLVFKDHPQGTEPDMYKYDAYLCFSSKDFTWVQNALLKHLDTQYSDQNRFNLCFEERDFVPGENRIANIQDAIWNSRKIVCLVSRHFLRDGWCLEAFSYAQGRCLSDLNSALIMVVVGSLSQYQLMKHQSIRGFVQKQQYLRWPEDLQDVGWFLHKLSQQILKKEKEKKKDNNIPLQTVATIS

As for “Lawsonia intracellularis putative flagellin LI0570 (LFliC) (natural protein)”, the IL-8 mRNA level (RT-PCR, 2^-ddCt) in HEK-Blue-hTLR5 cells treated with 10 and 100 ng/mL LFliC for 24 h amounted to 590 fold.
